This data set can be described thus: yeast display, Sf9 membrane polyspecificity reagent, FACS + sequencing; frameworks hold sequencing errors. The method in brief:
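Galactose induction of a Saccharomyces cerevisiae BJ5465 synthetic nanobody display library ran 36–48 hours. The cells were then stained for 1 hour at 4 °C with 10% biotinylated, detergent-solubilized Sf9 membrane reagent, pulled down on streptavidin microbeads and FACS-sorted into low and high (top ~1%) gates on expression and reagent-binding fluorescence. Labels for polyreactivity follow the gate of origin.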
For the sequence “QVQLVESGGGLVQAGGSLRLSCAASGRIFGGNAMGWYRQAAGKERELVAGITGSGGSTYYADSVKGRFTISRDNAKNTVYLQMISLKPEDTAVYYCAAGYTYYYPSSGFDYWGQGTQVTVSS”, the “polyreactivity (PSR sort gate)” value is recorded as “low polyreactivity”.

With “QVQLVESGGGLVQAGGSLRLSCAASGSTFYIYAMGAYRPAPGKERELVARISGSGGSTYYADSVKGRFTISRDNAKNTGYLQMNSLKPEDTAVYYCAADDIYKYYQYYAFPYYRYVYWGHGTQVTVSS”, the “polyreactivity (PSR sort gate)” value is “low polyreactivity”.

Consider “QVQLVESGGGLVQAGGSLRLSCAASGRTFGIYAMGWYRQAPGKERELVAAISRGGNTYADSVKGRFTISRDNAKNSVYLQMNSLKPEDTAVYYCAADRRYRPGDYWGQGTQVTVSS”, for which the “polyreactivity (PSR sort gate)” value was “high polyreactivity”.

Take “QVQLVESGGGLVQAGGSLRLSCAASGSTFEYYAMGWYRQAPGKERELVAAISRGGSTYYADSVKGRFTISRDNAKNTVYLQMNSLKPEDTAVYYCAAAPDYRAEYDYWGQGTQVTVSS”: the “polyreactivity (PSR sort gate)” value is listed as “low polyreactivity”.

For “QVQLVESGGGLVQAGGSLRLSCAASGFTFDLYAMGWYRQAPGKERELVAAISWSGGSTRYADSVKGRFTISRDNAKNTVYLQMNSLKPADSAVYYCARQPRLYFKGKLYGYWGQGTHVTVSS”, the “polyreactivity (PSR sort gate)” value was “high polyreactivity”.

As for “QVQLVESGGGLVQAGGSLRLSCAASGYIFKFYTMGWYRQAPGKERELVAAISRSGGSTYYADSVKGRFTISRDNAKNTVYLQLNSLKPEDTAVYYCARPRTRQGDYWGQGSQVTVSS”, the “polyreactivity (PSR sort gate)” value was “high polyreactivity”.

Regarding “QVQLVESGGGLVQAGGSLRLSCSASGRTFRKYAMGWYRQPPGKESELVAAISWSGGSTYYANSVKGRFTISRDNAKNTVYLQMNSLKPEDTAVYYCAAVPVHTGSLYWGFTTGYDYWGQGTQVTVSS”, the “polyreactivity (PSR sort gate)” value was “low polyreactivity”.

Regarding “QVQLVESGGGLVQAGGSLRLSCAASGFIFQGYAMGWYRQAHGKEREFVAAITTSGGTTYYADSVKGSFTISRDNAKNTVYLQKNSLKPEDTAVYYCAARGATVSTRIYGYWGQGPQVTVSS”, the “polyreactivity (PSR sort gate)” value is “high polyreactivity”.

Turning to “QLQHVESGGGLVQAGGRLRLSCAASGFTFYYYAMGWYRPEPGKERELVAAISSTGGSTYYADSVKGRFTISRDNAKNTVYLQMNSMKPEDTAVYYCNAACYRYPGDYDYWGQGTQVTVSS”, the “polyreactivity (PSR sort gate)” value was “high polyreactivity”.

In the case of “QVQLVESGGGLVQAGGSLRLSCAASGRIFRGNGMGWYRQAPGKERELVAAINYSGASTYYADSVKGRFTISRDNAKNTVYLQMNSLKPEDTAVYYCARAWFYRGGEGWLESYIVSGDYWGQGTQVTVSS”, the “polyreactivity (PSR sort gate)” value was “low polyreactivity”.

In the case of “QVQLVESGGGLVQAGGSLRLSCAASGLTFGYYVMGWYRQAPGKERELVADINFSGGSTYYADSVKGRFTISRDNAKNTVYLQMNSLKPEDTAVYYCNGVVYRFTVSTGYESWGQGTQVTVSS”, the “polyreactivity (PSR sort gate)” value is recorded as “low polyreactivity”.

With “QVQLVESGGGLVQAGGSLRLSCAASGRIFAKNTMGWYRQAPGKERELVAAITWSSGNTDYADSVKGRFTISRDNAKNTVYLQMNSLKPEDTAVYYCAAYPRWTYWGYVERYYWGQGTQVTVSS”, the “polyreactivity (PSR sort gate)” value is “high polyreactivity”.

On to “QVQLVESGGGLVQAGGSLRLSCAASGFIFGWNAMGWYRQAPGKERELVATITRGSTYYADSVKGRFTISRDNAKNTVYLQMNSLKPEDTAVYYCNVVYYGRWANYDYWGQGTQVTVSS”, for which the “polyreactivity (PSR sort gate)” value is “low polyreactivity”.

“QVQLVESGGGLDQARGSLRLSCAASGSTLALYTMGWNRQATGKETELVAAISKNGGRTYYADSVKGRFTISRDNAKNTVYLQMYSLKPEDTAVYYCAAASGSYRGYDFWGQGSQVTVSS”: the “polyreactivity (PSR sort gate)” value was “high polyreactivity”.

In the case of “QVQLVESGGGLVQAGGSLRLSCAASGRIFKRYAMGWYRQAPGKERELVAAITRGGSTNYADSVKGRFTISRDNAKNSVYLQMYSLKPEYTAVYYCAATTSRPYRSRYYYWGQGTQVTVSS”, the “polyreactivity (PSR sort gate)” value is “high polyreactivity”.

“QVQLVESGGGLVQAGGSLRLSCAASGNIFDEYTMGWYRQAPGKERELVAAISWRGGSTYYADSVKGRFTISRDNAKNTVYLQMNSLKPEDTAVYYCNKAYPADYDYWGQGTQVTVSS”: the “polyreactivity (PSR sort gate)” value is “low polyreactivity”.

In the case of “QVQLVESGAGLVQAGGSLRLSCAASGFTFRYYAMGWYRQAPGKERELVATISASSGSTYYADSVKGRFTISRDNAKNTVYLQMNSLKPEDTAVYYGAKEPLASGWGYDYWGQGTQVTVSS”, the “polyreactivity (PSR sort gate)” value is listed as “high polyreactivity”.

Regarding “QVQLVESGGGLVQAGGSLRLSCAASGFIFAHNAMGWYRQAPGKERELVADITRDGNTYYADSVKGRFTISRDNAKNTVYLQMNSLKTEDTAVYYCAADVSTTWYWWGQFEFEYWGQGTQVTVSS”, the “polyreactivity (PSR sort gate)” value is reported as “high polyreactivity”.

For the sequence “QVQLVESGGGLVQAGGSLRLSCAASGRTFYSYAMGWYSQAPGKERELVATISSNADGTYYADSVKGRFTISRDNAKNTVYLQMNSLKPEDTAVYYCAATYRRSHRYNYWGQGTQVTVSS”, the “polyreactivity (PSR sort gate)” value is given as “high polyreactivity”.

With “QVQLVESGGGLVHAGGSLLLSCSASGRTFDSNAMGWSRQAPGKERELVAAISGSGDTTYYADSVKGRFTISRDNAKNTVYLQMNSLKPEDTAVYYCADDHDSSGSGYEYWGQGTEVTVSS”, the “polyreactivity (PSR sort gate)” value is “low polyreactivity”.

On to “QVHHVESGGGLVQAGGSLRLSCAASGSTFGAHAMGWYRQAPGKERELVAVITWNDGSTYYADSVKGRFKISRDNAKNTVYLQMNSLKPEDTAVYYCAAEYADSWSAFAWNYYYWGQGTQVTVSS”, for which the “polyreactivity (PSR sort gate)” value is “high polyreactivity”.

For “QVQLVESGGGLVQAGGSLRLSCAASGRTIDHYAMGWYRQAPGKERELVAAISTTGGSTYYADSVKGRFTISRDNAKNTVYLQMNSLKPEDTAVYYCAARQRYFWYTTNYNYWGQGTQVTVSS”, the “polyreactivity (PSR sort gate)” value was “high polyreactivity”.

Regarding “QVQLEDSGGGLVQAGGSLPLSCAASGGTFTDYAMGWYRQAPGKERELVAAISSVGSTNYADSVKGRFTISRDNAKNTVYLQMNSLKPEDTAVYYCAVDYGRAVQVDSITYDFNYWGQGTQVNVSS”, the “polyreactivity (PSR sort gate)” value was “low polyreactivity”.

Take “QVQLVESGGALVQAGGSLRLSCAASGRIFYKYVMGWYRQAPGKERELVATITSGGSTYYADSVKWRFTISRDNAKNTVYLQMNSLKPEDTAVYYCAARKYYSRAYDYWGQGTQVTVSS”: the “polyreactivity (PSR sort gate)” value is on record as “high polyreactivity”.

With “QVQLVESGGGLVQAGGSLRLSCAASGRIFGLYAMGWYRQAPGKERELVAAISVISTGPYYADSVKGRFTISRDNAMNTVYFQMNSLKPEDTAVYYCNADSVQYTPPESDYWGQGTQVTVSS”, the “polyreactivity (PSR sort gate)” value was “low polyreactivity”.

Regarding “QDQLVESGGGLVQAGGSLRLSCAASGRTFRKYAMGWYRPAPGKEREFVAAITSSGGSTYYADSVKGRYTISRDNAKNTVYLQMNSLKPEDTAVYYCAAARTSTGTYRYEYWGQGTQVTVSS”, the “polyreactivity (PSR sort gate)” value is “high polyreactivity”.

As for “QVQLVESGGGLVQAGGSLRLSCAASGLILNSYDMGWYRQAPGKERELVAAITRSGGNTFYADSVKGRFKISRDNAKNTVYLQMNSLNPEDTAVYYCNAYYTYWSQLYYWGQGTQVTVSS”, the “polyreactivity (PSR sort gate)” value is listed as “high polyreactivity”.

Turning to “QVHLVESGGGLVQAGGSLRLSCAASGIIFSTYAMGWYRQAPGKERELVAAITSTGSTNYADSVKGRFTISRDNAKNTVYLQINRLKQEDTAVYYCAARYAGPSPTDTGHDYWGQGTQVTVSS”, the “polyreactivity (PSR sort gate)” value was “low polyreactivity”.

For “QVQLVESGGGLVQAGGSLRLSCAASGNTFLRYAMGWYRQAPGKERELVAAISRSGGSTYYADSVKGRFTISRDNAKNTVYLQMNSLKPEDTAVYYCATRVYFSPYRYDYWGQGTQVTVSS”, the “polyreactivity (PSR sort gate)” value is “high polyreactivity”.

For “QVQLVESGGGLVQAGGSLRLSCAASGSNISNYVMGWYRQAPWKERELVAAITRRGGRTYYADSVKGRFTISRDYAKNTFYLQMNSLKPEDTAVYYCAKRHVGSRYLFEYWGQGTQVTVSS”, the “polyreactivity (PSR sort gate)” value is recorded as “low polyreactivity”.

Consider “QVQLVDSGGGLVQAGGSLRLSCPASGRTFYVYDMGWYRQSPGKERELVAVISSSGSTNYADSVKGRFTISRDNAKNTVYLQMNSLKPEDTAVYYCNRRRWYFFSLDFWGEGTQVTVSS”, for which the “polyreactivity (PSR sort gate)” value is “high polyreactivity”.

Regarding “QVQHVESGGGLVQAGGSLRLSCAASGSIFITYAMGWYRQAPGKERELVAAIRDSGDRTYYADSVKGRFTISRDNAKNTVYLQMNSLKPEDTAVYYCNARWQEPQKYDYWGQGTQVTVSS”, the “polyreactivity (PSR sort gate)” value is on record as “low polyreactivity”.

“QVQLVESGGGLVQAGGSLRLNCAASGLIFSNNAMGWYRQAHRKERDLVAAITSSGSRTYYADSVKGRFTISRDNAQITVYLQMNSLKPEDTAVYYCAAYEVPYQRRYGYWGQGTQVTVSS”: the “polyreactivity (PSR sort gate)” value was “high polyreactivity”.

Consider “LVQQVESGGGLVQAVGTLRISCAASGQILYSYAMGWYRQAPGKERELVAAITGGVSTNYADSVKGRFTISRDNAKNTVYLQMNSLKPEDTAVYYCNVELWEYSYIDEYWGQGTQLTVSS”, for which the “polyreactivity (PSR sort gate)” value is reported as “low polyreactivity”.

“QLQLVESGGGLVQAGGSLRLSCAATGYISNAMGWYRQPPGKERELVAAISRSGGSTYYADSVKGRFTISRDNAKNTVYLQMNSLKPEDTAVYYCAADYTYHDRRLDYWGQGTQVTVSS”: the “polyreactivity (PSR sort gate)” value was “low polyreactivity”.

For “QVQLQESGDGLVQAVGSLRLSCAASGYISGKYYMGWYRKAPGNERGLLDGIDACGSRTNYADCVKGRFTISRDNAHNTVYLQMNSLKPEDTAVYYCAARPDGDRLFSYWGQGTQVPVSS”, the “polyreactivity (PSR sort gate)” value was “low polyreactivity”.

For “QVHLVESGGGLVQAGGSLRLSCAASGSIIGLYAMGWYRQAPGKERELVAYITGGGSTYYADSVKGRFTISRDIAKNTVYLQMNSLKPEDTAVYYCNKRGTEIGYDYWGQGTQVTVLS”, the “polyreactivity (PSR sort gate)” value is listed as “low polyreactivity”.

For the sequence “QVQLEESGGGLVQAGGSLRLSCAASGSISYNNVMGWYRQAPGKERELVARIRSGGSTYYADSVKGRFTISRDNAKNTVYLLMNSLKQEDTAVYYCAARTKRQAGSYGYWGQGTQVTVSS”, the “polyreactivity (PSR sort gate)” value is “high polyreactivity”.

Regarding “QVQLVESGGGLVQGGGSLRLSCAASGSIFSTYVMGWYRQGPGKERELVAAISRRGGSTYYADSVKGRFTISRDNAKNTVYLQMNSLNPADTAVYYCAADGTVGRRDYWGQGTQVTVSS”, the “polyreactivity (PSR sort gate)” value was “high polyreactivity”.

On to “QVQLVESGGGLVQAGGSLRLSCAASGITFYGNAMGWYRQAPGKERELVANTYYADSVKGRFTISRDNAKNTVYLQMNSLKPEDTAVYYCNVLFADKSDYWGQGTQVTVSS”, for which the “polyreactivity (PSR sort gate)” value is on record as “low polyreactivity”.

With “QVQIVESGGGLVQAGGSLRLSCAASGSTYDTYAMVWYRQAPGKERELVAGITRRGGRTYYADSVKGRFTISRDNAKNTVYLQMISLKPEDTAVYYCAARTYGYYLYDYWGQGSQVTVSS”, the “polyreactivity (PSR sort gate)” value is “high polyreactivity”.

For the origin of these results see the nanobody polyreactivity screen of Harvey et al. (2022).
